Test results from the nanobody polyreactivity screen of Harvey et al. (2022).

Assay: yeast display, Sf9 membrane polyspecificity reagent, FACS + sequencing; frameworks hold sequencing errors
Summary of the method: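 Synthetic nanobody libraries on Saccharomyces cerevisiae BJ5465 were galactose-induced for 36–48 hours, stained 1 hour at 4 °C with 10% biotinylated, detergent-solubilized Sf9 membrane reagent and enriched on streptavidin microbeads. FACS then separated cells into low and high (top ~1%) gates by anti-HA (expression) and streptavidin (reagent binding) fluorescence. Genes were colony-PCR amplified, MiSeq 2 × 250 sequenced and CDR-length filtered. A clone's polyreactivity label is that of its gate of origin.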

QVQLGESGGGLVQAGGSLRLSCAASARNSSFYEMGWYRQAPGKGSELVAAINWDDGTTYYADSVMGRFTISRDNAQNNVYFQKNSLNPEDTAVYYCAVEGFSSAAYDFEYWGQGSQVTVSS
polyreactivity (PSR sort gate): high polyreactivity

QVQLGESGGGLVQAGGSLRLSCAASGFTFDVNAMGWYRQATGKERELFAGITTSDGSTYYADSVKGRFTISRDNAKNTVYLQMNSLQPEDTAVYYCAAAITWYQLYQRSGGDYWGQGTQVTVSS
polyreactivity (PSR sort gate): low polyreactivity

QVQLGESGGGLVQAGGSLRLSCAASGFTFQEYAMGWYRQAPGKDRELVAAITSGTTTNYADSVKGRFTISRDNAKNTVYLQMNSLKPEDTAVYYCNVRRQSGRYRVYEYDYWGQGTQVTVSS
polyreactivity (PSR sort gate): low polyreactivity

QVQLGESGGGLVQAGGSLRLSCAASGFTFTRYAMGWYRQAPGKERELVAAIRWSGGRTYFADSVKGRFTISRDNAKNTVYLEMNRLKPEDTAVYYCNAVFYDPRREYDYWGQGTQVTVSS
polyreactivity (PSR sort gate): high polyreactivity

QVQLGESGGGLVQAGGSLRLSCAASGFTFYRYTLGWYRQEPGKERELVAAITWSGGNTYYADSVKGRFTISRDNAKNTVYLQMNSLKPEDTAFYYCAAYKPYSKYNYWGQGTQVTVSS
polyreactivity (PSR sort gate): high polyreactivity

QVQLGESGGGLVQAGGSLRLSCAASGGTFSQYAMGWYRHAPGKERELVARISRRGGSTSYADSVKGRFTISRDNAKNTVYLQMNSLKPEDTAVYYCAKDAPSVYPGRFGNTGGYAYDYWGQGTQVTVSS
polyreactivity (PSR sort gate): high polyreactivity

QVQLGESGGGLVQAGGSLRLSCAASGGTFTSYAMGWYRQAPGKERELVAGITSSGGNTYYADSVKGRFTISRDNAKNTVYLQMNSLKPEDTAVYYCAAKSGRGRTMDYWGQGTQVTVSS
polyreactivity (PSR sort gate): high polyreactivity

QVQLGESGGGLVQAGGSLRLSCAASGIIFLGYAMGSYRQAPGKERELVAAFYSGVRTYYADSVKGRFTISRDNAKNTVYLQMNSLKPEDTAVYYCNATWTPYSSKQYYYWGLGTQVTVSS
polyreactivity (PSR sort gate): low polyreactivity

QVQLGESGGGLVQAGGSLRLSCAASGIIFYEYVMVWYRQAPGKEREFVATISSIGGSTYYADSVKGRFTISRDNAKNTVYLQMNSRKPADTAVYYCAADPDPVVAPGGNWYGDDYWGQGSQVTVSS
polyreactivity (PSR sort gate): high polyreactivity

QVQLGESGGGLVQAGGSLRLSCAASGITFERNAMGWYRQAPGKERELVAAWSGGGTYYADSVKGRFTISRDNAKNTVYLQMDSLKPEDTAVYYCAADYRYDLSIGVNYWGQGTQVTVSS
polyreactivity (PSR sort gate): low polyreactivity

QVQLGESGGGLVQAGGSLRLSCAASGLTFDPNAMGWYRQAPGKERELVATITQTDGSTYYADSVKGRFTISRDNAKNTVYLQMNSLKPEDTAVYYCAVDVDEPRYRRPFHHDYWGQGTQVTVSS
polyreactivity (PSR sort gate): low polyreactivity

QVQLGESGGGLVQAGGSLRLSCAASGLTLYLYTMGWYREAPGKEMELVASIDSGTSTKYADSVKGRFTISRDNAKNTVYLQMNSLKPEDTAVYYCAAGVWVTRYFRYYYWGQGTLVTVSS
polyreactivity (PSR sort gate): low polyreactivity

QVQLGESGGGLVQAGGSLRLSCAASGNTFGTYAMGWYRHAPGKERELVAAITWRGGRTTYADSVKGRFTISRDNAKNTVYLQMIRLIPEDTAVYYCAAVIHWWYATYDYWGQGTQVTVSS
polyreactivity (PSR sort gate): high polyreactivity

QVQLGESGGGLVQAGGSLRLSCAASGRIFAGYAMGWYRQAPGKERELVATISSGGSTYYADSVKGRFTISRDNAKNTVYLQMHSLKPEDTAVYYCAAEYATRQYSSYYNLFNYCGQGTQVTVSS
polyreactivity (PSR sort gate): low polyreactivity

QVQLGESGGGLVQAGGSLRLSCAASGRIFAWNAMGWYRQAPGKERELVAAITYNGGSTYYADSVKGRFTISRDNAKNTVYLQMNSLKPEDTAVYYCNKVTRSPAQGYGYWGQGTQVTVSS
polyreactivity (PSR sort gate): high polyreactivity

QVQLGESGGGLVQAGGSLRLSCAASGRIFQIYGMGWYRQAPGKERELVASISSGDSTNFADSVKGRFTISRDNAKNTVYLQMNSLIPEDTAVYYCAARSRRAYNYWGQGTQVTVSS
polyreactivity (PSR sort gate): high polyreactivity

QVQLGESGGGLVQAGGSLRLSCAASGRIFYLNVMGWYRQAPGKERELVAAITRRDVTTYADSVKGRFTISRDNAKNTVYLQMNSLKPEDTAVYYCNAVYYNWIGFDYWGQGTQVTVSS
polyreactivity (PSR sort gate): low polyreactivity
